Assays:
dynamic light scattering = molecular target: the molecule itself; test: dynamic light scattering
SEC = molecular target: the molecule itself; test: SEC

B1: Carboxy-terminal truncated SAA2.2 (SAA2.2ΔC), truncated after the ninetieth amino acid residue (domain or fragment, mouse (CE/J strain), UniProt P05367 20-109, looked up)
chain: GFFSFVHEAFLGAGDMWRAYTDMKEAGWKDGDKYFHARGNYDAAQRGPGGVWAAEKISDGREAFQEFFGRGHEDTMADQEANRHGRSGKD
Dynamic light scattering
  stoichiometry N: 70 to 170 subunits

B2: Serum amyloid A isoform SAA2.2 from the CE/J mouse strain, full-length (103 amino acids) (natural protein, mouse (CE/J strain), UniProt P05367 20-122, looked up)
chain: GFFSFVHEAFLGAGDMWRAYTDMKEAGWKDGDKYFHARGNYDAAQRGPGGVWAAEKISDGREAFQEFFGRGHEDTMADQEANRHGRSGKDPNYYRPPGLPDKY
SEC
  stoichiometry N: 8 subunits

Source: article PMC3332083 (Biochemistry, 2012)
